The record followed here is article doi:10.1101/659805.

In this series the target is T1, FLAG-Npas4 (Mus musculus (mouse), UniProt Q8BGD7 1-802).
T1 sequence: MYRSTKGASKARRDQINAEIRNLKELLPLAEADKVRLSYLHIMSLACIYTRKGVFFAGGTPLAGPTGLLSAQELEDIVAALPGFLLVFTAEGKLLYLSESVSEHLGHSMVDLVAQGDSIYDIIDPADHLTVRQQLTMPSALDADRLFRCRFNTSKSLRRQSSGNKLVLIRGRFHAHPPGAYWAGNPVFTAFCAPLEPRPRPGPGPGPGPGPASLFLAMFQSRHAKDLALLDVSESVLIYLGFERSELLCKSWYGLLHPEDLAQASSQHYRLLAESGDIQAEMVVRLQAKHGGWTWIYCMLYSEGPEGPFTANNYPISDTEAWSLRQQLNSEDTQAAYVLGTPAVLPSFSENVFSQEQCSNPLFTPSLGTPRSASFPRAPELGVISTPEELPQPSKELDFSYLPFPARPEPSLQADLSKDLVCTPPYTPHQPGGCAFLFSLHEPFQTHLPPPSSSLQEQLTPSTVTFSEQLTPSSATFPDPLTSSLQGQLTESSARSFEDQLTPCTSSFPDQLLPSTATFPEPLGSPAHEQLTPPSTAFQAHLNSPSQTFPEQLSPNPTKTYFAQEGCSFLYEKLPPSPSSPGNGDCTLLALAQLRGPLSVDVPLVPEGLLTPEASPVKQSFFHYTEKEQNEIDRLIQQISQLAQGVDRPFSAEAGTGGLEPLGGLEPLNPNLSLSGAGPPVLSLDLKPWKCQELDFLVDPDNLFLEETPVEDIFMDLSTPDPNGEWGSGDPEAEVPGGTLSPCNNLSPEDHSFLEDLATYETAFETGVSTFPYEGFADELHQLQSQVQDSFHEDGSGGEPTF
Nature of the series: EMSA. On the technique in general: A gel shift assay detects complexes by their altered migration in electrophoresis.

B1: Iqsec3 promoter WT probe (dsDNA)
DNA 1: CGGGAAGCAGGGTTCCTCACGAAGCCCAGAGGTGGGAGGTGG
DNA 2: CCACCTCCCACCTCTGGGCTTCGTGAGGAACCCTGCTTCCCG
As to B1, the binding result was “binds”.

B2: Iqsec3 promoter MT probe (dsDNA)
DNA 1: CGGGAAGCAGGGTTCCTAAAAAAGCCCAGAGGTGGGAGGTGG
DNA 2: CCACCTCCCACCTCTGGGCTTTTTTAGGAACCCTGCTTCCCG
As to B2, the binding result is given as “no binding”.
